Laboratory results reported in patent publication US20200157212A1 (Pfizer, published 2020).

T1: Human ROBO2 Ig1-Ig2-His (human, UniProt Q9HCK4 31-220)
T1 construct: the His tag is named only in the SPR paragraphs; the Octet and ELISA paragraphs print 'ROBO2 Ig1-Ig2' without a tag; also called ROBO2 Ig1-2; Human ROBO2 Ig 1,2
T1 sequence: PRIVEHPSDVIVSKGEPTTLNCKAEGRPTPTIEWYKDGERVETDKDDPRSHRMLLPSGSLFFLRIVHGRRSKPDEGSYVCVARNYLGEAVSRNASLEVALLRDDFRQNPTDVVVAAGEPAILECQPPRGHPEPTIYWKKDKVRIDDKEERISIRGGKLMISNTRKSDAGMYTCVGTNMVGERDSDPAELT

T2: Terbium (Tb) labeled-SNAP tagged ROBO2 expressed on HEK293 cells (Homo sapiens (Human), UniProt Q9HCK4 22-1378, terbium label on the SNAP tag)
T2 construct: also called Tb-labeled ROBO2 cells; ROBO2 expressing cells; not shown: SNAP tag
T2 sequence: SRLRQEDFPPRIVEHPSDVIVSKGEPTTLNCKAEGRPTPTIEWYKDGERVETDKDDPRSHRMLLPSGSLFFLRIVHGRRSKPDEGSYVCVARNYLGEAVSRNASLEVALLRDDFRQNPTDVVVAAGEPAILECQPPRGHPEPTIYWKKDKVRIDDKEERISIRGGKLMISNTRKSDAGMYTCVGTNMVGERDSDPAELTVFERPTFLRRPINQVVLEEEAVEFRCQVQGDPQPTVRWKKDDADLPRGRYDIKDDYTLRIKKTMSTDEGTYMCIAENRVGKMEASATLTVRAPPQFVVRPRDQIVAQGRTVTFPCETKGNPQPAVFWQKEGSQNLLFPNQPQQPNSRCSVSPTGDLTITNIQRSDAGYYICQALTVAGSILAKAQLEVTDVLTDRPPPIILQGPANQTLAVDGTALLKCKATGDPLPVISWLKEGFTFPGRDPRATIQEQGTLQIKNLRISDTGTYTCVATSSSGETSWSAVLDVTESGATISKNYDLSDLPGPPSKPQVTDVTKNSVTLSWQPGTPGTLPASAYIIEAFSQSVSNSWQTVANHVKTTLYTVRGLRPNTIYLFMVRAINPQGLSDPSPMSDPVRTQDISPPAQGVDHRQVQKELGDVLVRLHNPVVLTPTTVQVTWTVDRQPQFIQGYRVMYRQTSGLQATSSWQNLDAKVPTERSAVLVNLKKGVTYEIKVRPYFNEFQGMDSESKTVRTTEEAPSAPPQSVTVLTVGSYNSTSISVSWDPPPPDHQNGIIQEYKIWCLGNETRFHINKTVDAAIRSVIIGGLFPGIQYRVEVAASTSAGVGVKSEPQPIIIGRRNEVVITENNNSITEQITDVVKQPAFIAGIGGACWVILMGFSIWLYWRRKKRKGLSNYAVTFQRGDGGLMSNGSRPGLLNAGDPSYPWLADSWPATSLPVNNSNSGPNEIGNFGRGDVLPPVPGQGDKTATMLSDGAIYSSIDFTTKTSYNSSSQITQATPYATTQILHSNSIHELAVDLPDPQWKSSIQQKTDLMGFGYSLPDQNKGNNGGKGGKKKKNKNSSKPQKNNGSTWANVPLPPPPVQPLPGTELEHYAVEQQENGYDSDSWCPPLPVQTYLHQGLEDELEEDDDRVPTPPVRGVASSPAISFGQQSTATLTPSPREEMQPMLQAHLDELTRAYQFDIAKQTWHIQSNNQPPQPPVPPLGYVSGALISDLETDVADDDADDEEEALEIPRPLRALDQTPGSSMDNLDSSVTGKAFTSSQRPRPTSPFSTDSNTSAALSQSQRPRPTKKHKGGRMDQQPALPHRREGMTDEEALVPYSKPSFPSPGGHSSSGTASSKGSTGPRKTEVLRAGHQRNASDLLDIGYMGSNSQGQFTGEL


Assays:
Human ROBO2 Ig1-Ig2-His = target: T1, Human ROBO2 Ig1-Ig2-His; test: SPR, antibody on CM5 chip, ROBO2 Ig1-Ig2-His
Experimental: Based upon several criteria, Abcs25 and Abcs35 were selected for further characterization. Using flow cytometry, improvement in the binding EC₅₀ to human ROBO2 relative to the parental 93H2 was evaluated. Starting at 6.7 nM, 11-point, 3-fold dilution series were made for each antibody and used to stain HEK293 overexpressing human ROBO2 as described above for the ROBO2 fold selectivity (Example 2). […] In addition to measuring improved binding to human ROBO2, it was important to ensure that high affinity binding to both cynomolgus monkey ROBO2 and rat ROBO2 was maintained. Using HEK293 cells overexpressing either cynomolgus monkey ROBO2 or rat ROBO2, the relative dose-dependent binding of 93H2, Abcs25 and Abcs35 was evaluated as described above. High affinity binding to both cynomolgus monkey and rat ROBO2 was maintained in Abcs25 and Abcs35 (Table 4). […] Briefly, Abcs35 was immobilized to 300 resonance units (RU) on a CM5 chip. Association of ROBO2 Ig1-Ig2-His (ROBO2) was measured over 5 minutes and dissociation was followed for a period of 10 minutes.
Affinity was measured by standard SPR methods as described in Example 3. Briefly, antibodies were immobilized to a specific measure of resonance units (RU) on a CM5 chip. Association of ROBO2 Ig1-Ig2-His (ROBO2) and dissociation will be followed for a period of time.

[1] = target: T2, Terbium (Tb) labeled-SNAP tagged ROBO2 …; test: HTRF competition, competitor d2-SLIT2-N, ROBO2 HEK293 cells
Experimental: A ROBO2-SLIT2-N homogenous time resolved fluorescence (HTRF) assay was used to identify antibodies that were capable of blocking SLIT2-N binding to ROBO2. In this assay, terbium (Tb) labeled-SNAP tagged ROBO2 expressing HEK293 cells were incubated with 5 nM d2-labeled SLIT-2N in the presence of 1 nM anti-ROBO2 antibodies for 1 hour. After incubation, fluorescence at 665 nm and 620 nm was measured on an Envision multilabel plate reader. […] Maximal signal was defined as the HTRF ratio of Tb-labeled ROBO2 cells with d2-labeled SLIT2-N in the absence of antibody, the minimum signal was defined as the HTRF ratio of Tb-labeled ROBO2 expressing HEK293 cells only. One nanomolar (nM) parental antibody, 93H2, was unable to block the HTRF assay, therefore this concentration was selected to identify clones with a higher affinity than 93H2 (Table 2, HTRF Ratio column). […] Antibodies derived from chain (Abcs series) or CDR shuffling (CTIR-2 series) were evaluated in 11-point, 5-fold dilution series with a top concentration of 1500 nM (Table 2 HTRF IC₅₀).
Neutralization of SLIT2-N binding to ROBO2 was assessed ROBO2:SLIT2-N homogenous time resolved fluorescence (HTRF) assay as described in Example 2. Briefly the HTRF assay was performed as follows: terbium (Tb) labeled-SNAP tagged ROBO2 expressing HEK293 cells were incubated with d2-labeled SLIT-2N in the presence of anti-ROBO2 antibodies for 1 hour. After incubation, fluorescence at 665 nm and 620 nm was measured on an Envision multi-label plate reader. […] Maximal signal was defined as the HTRF ratio of Tb-labeled ROBO2 cells with d2-labeled SLIT2-N in the absence of antibody, the minimum signal was defined as the HTRF ratio of Tb-labeled ROBO2 expressing HEK293 cells only.

Kd (Human ROBO2 Ig1-Ig2-His)	IC50 [1]	Binder
0.149 nM	0.0796 nM	Abcs35-L (antibody, human IgG1, kappa, germlined variant of Abcs35) heavy: QVQLVQSGAEVKKPGASVKVSCKASGYTFTGYYMHWVRQAPGQGLEWMGWINPKNGDTEFPQKFQGRVTMTRDTSITTAYMDLSRLRSDDTAVYYCARESGDDAFDIWGQGTMVTVSSASTKGPSVFPLAPSSKSTSGGTAALGCLVKDYFPEPVTVSWNSGALTSGVHTFPAVLQSSGLYSLSSVVTVPSSSLGTQTYICNVNHKPSNTKVDKKVEPKSCDKTHTCPPCPAPEAAGAPSVFLFPPKPKDTLMISRTPEVTCVVVDVSHEDPEVKFNWYVDGVEVHNAKTKPREEQYNSTYRVVSVLTVLHQDWLNGKEYKCKVSNKALPAPIEKTISKAKGQPREPQVYTLPPSREEMTKNQVSLTCLVKGFYPSDIAVEWESNGQPENNYKTTPPVLDSDGSFFLYSKLTVDKSRWQQGNVFSCSVMHEALHNHYTQKSLSLSPGK light: not shown
0.217 nM	0.0624 nM	Abcs35-O (antibody, human IgG1, kappa, germlined variant of Abcs35) heavy: QVQLVQSGAEVKKPGASVKVSCKASGYTFTGYYMHWVRQAPGQGLEWMGWINPKNGDTEFPQKFQGRVTMTRDTSISTAYMELSRLRSDDTAVYYCARESGDDAFDIWGQGTMVTVSSASTKGPSVFPLAPSSKSTSGGTAALGCLVKDYFPEPVTVSWNSGALTSGVHTFPAVLQSSGLYSLSSVVTVPSSSLGTQTYICNVNHKPSNTKVDKKVEPKSCDKTHTCPPCPAPEAAGAPSVFLFPPKPKDTLMISRTPEVTCVVVDVSHEDPEVKFNWYVDGVEVHNAKTKPREEQYNSTYRVVSVLTVLHQDWLNGKEYKCKVSNKALPAPIEKTISKAKGQPREPQVYTLPPSREEMTKNQVSLTCLVKGFYPSDIAVEWESNGQPENNYKTTPPVLDSDGSFFLYSKLTVDKSRWQQGNVFSCSVMHEALHNHYTQKSLSLSPGK light: not shown
0.146 nM	0.0903 nM	Abcs35-N (antibody, human IgG1, kappa, germlined variant of Abcs35) heavy: QVQLVQSGAEVKKPGASVKVSCKASGYTFTGYYMHWVRQAPGQGLEWMGWINPKNGDTEFPQKFQGRVTMTRDTSITTAYMELSRLRSDDTAVYYCARESGDDAFDIWGQGTMVTVSSASTKGPSVFPLAPSSKSTSGGTAALGCLVKDYFPEPVTVSWNSGALTSGVHTFPAVLQSSGLYSLSSVVTVPSSSLGTQTYICNVNHKPSNTKVDKKVEPKSCDKTHTCPPCPAPEAAGAPSVFLFPPKPKDTLMISRTPEVTCVVVDVSHEDPEVKFNWYVDGVEVHNAKTKPREEQYNSTYRVVSVLTVLHQDWLNGKEYKCKVSNKALPAPIEKTISKAKGQPREPQVYTLPPSREEMTKNQVSLTCLVKGFYPSDIAVEWESNGQPENNYKTTPPVLDSDGSFFLYSKLTVDKSRWQQGNVFSCSVMHEALHNHYTQKSLSLSPGK light: not shown
0.217 nM	0.0591 nM	Abcs35-M (antibody, human IgG1, kappa, germlined variant of Abcs35) heavy: QVQLVQSGAEVKKPGASVKVSCKASGYTFTGYYMHWVRQAPGQGLEWMGWINPKNGDTEFPQKFQGRVTMTRDTSISTAYMDLSRLRSDDTAVYYCARESGDDAFDIWGQGTMVTVSSASTKGPSVFPLAPSSKSTSGGTAALGCLVKDYFPEPVTVSWNSGALTSGVHTFPAVLQSSGLYSLSSVVTVPSSSLGTQTYICNVNHKPSNTKVDKKVEPKSCDKTHTCPPCPAPEAAGAPSVFLFPPKPKDTLMISRTPEVTCVVVDVSHEDPEVKFNWYVDGVEVHNAKTKPREEQYNSTYRVVSVLTVLHQDWLNGKEYKCKVSNKALPAPIEKTISKAKGQPREPQVYTLPPSREEMTKNQVSLTCLVKGFYPSDIAVEWESNGQPENNYKTTPPVLDSDGSFFLYSKLTVDKSRWQQGNVFSCSVMHEALHNHYTQKSLSLSPGK light: not shown
